To fix the notation:
T1: human LAG-3 on the cell surface (human, UniProt P18627 23-525)
T1 construct: whole, on cells; also called cells expressing the human LAG-3
T1 sequence (looked up): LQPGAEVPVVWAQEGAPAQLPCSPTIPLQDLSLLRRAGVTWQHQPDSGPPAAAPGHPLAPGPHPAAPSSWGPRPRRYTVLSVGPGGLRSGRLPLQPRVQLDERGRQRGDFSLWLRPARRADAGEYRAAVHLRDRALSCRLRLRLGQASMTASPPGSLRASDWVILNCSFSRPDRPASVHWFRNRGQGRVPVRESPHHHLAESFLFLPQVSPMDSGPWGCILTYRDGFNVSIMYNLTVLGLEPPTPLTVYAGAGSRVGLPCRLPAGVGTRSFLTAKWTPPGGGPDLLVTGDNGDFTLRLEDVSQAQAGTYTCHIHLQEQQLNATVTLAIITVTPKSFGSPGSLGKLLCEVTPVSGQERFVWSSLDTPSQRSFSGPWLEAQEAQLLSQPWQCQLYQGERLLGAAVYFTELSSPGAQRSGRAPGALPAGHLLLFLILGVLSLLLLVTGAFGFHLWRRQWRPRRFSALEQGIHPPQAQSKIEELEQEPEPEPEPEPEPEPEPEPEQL

T2: human LAG-3-6*His tag recombinant fusion protein (human, UniProt P18627 23-450, biotin-labelled in panning and in Example 9)
T2 construct: Bought protein; also called hLAG-3-6*his tag recombinant protein; human LAG-3-his tag recombinant fusion protein
T2 sequence: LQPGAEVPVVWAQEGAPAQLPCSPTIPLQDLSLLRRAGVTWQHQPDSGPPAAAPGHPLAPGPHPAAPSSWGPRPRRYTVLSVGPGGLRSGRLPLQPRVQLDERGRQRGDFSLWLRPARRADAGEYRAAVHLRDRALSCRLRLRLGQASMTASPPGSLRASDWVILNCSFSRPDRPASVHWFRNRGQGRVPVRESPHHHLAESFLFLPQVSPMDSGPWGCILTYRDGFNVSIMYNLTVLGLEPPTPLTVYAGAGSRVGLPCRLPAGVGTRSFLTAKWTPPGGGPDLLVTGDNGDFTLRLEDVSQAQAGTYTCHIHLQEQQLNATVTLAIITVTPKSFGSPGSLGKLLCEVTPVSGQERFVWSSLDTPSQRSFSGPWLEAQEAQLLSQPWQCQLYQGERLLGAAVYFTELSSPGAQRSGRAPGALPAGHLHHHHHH

B1: scFv single chain antibody 11449 (scFv)
scFv: QVQLVQSGAEVKKPGASVKVSCKASGYTFTSYGISWVRQAPGQGLEWMGWISAYNGNTNYAQKLQGRVTMTTDTSTSTAYMELRSLRSDDTAVYYCARDEGANWGDAFDIWGQGTMVTVSSGGGGSGGGGSGGGGSGGGGASQLVLTQSPSASGTPGQRVTISCSGSSSNIGNNAVNWYQQLPGTAPKILIYSNNQRPSGVPDRFSGSKSGASASLAISGLQSEDESDYYCAAWDDSLNAVVFSGGTELTVL
notes: From phagemid pCLS1.0, which adds a C-terminal Myc-His tag
B2: scFv single chain antibody 11452 (scFv)
scFv: EVQLLESGAEVKKPGASVKVSCKASGYTFTSYGISWVRQAPGQGLEWMGWISAYNGNTNYAQKLQGRVTMTTDTSTSTAYMELRSLRSDDTAVYYCARDGWWELLRPDDAFDIWGQGTTVTVSSGGGGSGGGGSGGGGSGGGGASQLVLTQSPSVSVSPGQTASITCSGDKLGDKYAYWYQQKPGQAPVLVIYYDSDRPSGIPERFSGSNSGNTATLTISRVEAGDEADYYCQVWDSSSDQVVFGGGTQLTVL
notes: as for B1
B3: scFv single chain antibody 11506 (scFv)
scFv: QLQLQESGPGLVKSSQTLSLTCSVSGDSISSGKYYWTWIRQPAGKGLEWLGRIHSSGFAQYNPSLKGRLTISVDTRKNEFSLKMTSVTAADTAVYYCARGGWNDPFDSWGQGTLVTVSSGGGGSGGGGSGGGGSGGGGASDIQMTQSPDSLAVSLGERATINCKSSQSVLYSSNNKNYLAWYQQKPGQPPKLLIYWASTRESGVPDRFSVSGSGTDFTLTISSLHAEDVAVYYCQQYYSTPITFGPGTKLEIK
notes: as for B1
B4: scFv single chain antibody 11507 (scFv)
scFv: QVQLQESGPGLVKPSETLSLTCTVSGYSISSGYYWGWIRQPPGKGLEWIGSIYHSGSTYYNPSLKSRVTISVDTSKNQFSLKLSSVTAADTAVYYCARDLQDWFDPWGQGTLVTVSSGGGGSGGGGSGGGGSGGGGASLAVLTHAPSASGTPGQRVTISCSGSKSNIGSNSVNWYQHLPGTAPKLLIHTNDQRPSGVPDRFAGSKSGTSASLTISGLRPEDEADYYCATWDDSMSGPVFGGGTELTVL
notes: as for B1
B5: scFv single chain antibody 11454 (scFv)
scFv: EVQLLQSGGGLVQPGGSLRLSCAASGFTFSSYEMNWVRQAPGKGLEWVSYISSSGSTIYYADSVKGRFTISRDNAKNSLYLQMNSLRAEDTAVYYCARVGLLDAFDIWGQGTMVTVSSGGGGSGGGGSGGGGSGGGGASQSVLTQPPSVSAAPGQKVTISCSGSSSNIGNNYVSWYQLIPEKAPRLLIYDDDKRPSGIPDRFSGSQSGTSATLGITGLQTGDEADYFCGTWDNSLSGAVFGGGTQLIIL
notes: as for B1
B6: scFv single chain antibody 11487 (scFv)
scFv: QVQLVESGGGLVQPGRSLRLSCVASGFTFDDHAMHWVRQTPEKGLEWVSGISWNGGDIRYADSVKGRFIISRDNAKNSLHLQMNSLRGEDTAVYYCARDGGYSVLRAFDIWGQGTTVTVSSGGGGSGGGGSGGGGSGGGGASQSVLTQPPSVSGAPGQRVTISCTGSSSNIGAGYDVHWYQQLPGTAPKLLIYGNSNRPSGVPDRFSGSKSGTSASLAITGLQAEDEADYYCQSYDSSLSGWVFGGGTQLIIL
notes: as for B1
B7: scFv single chain antibody 11465 (scFv)
scFv: QVQLVQSGAEVKKPGSSVKVSCKTSGGTFSNYAINWVRQAPGQGLEWMGVIIPMFGPANYVQKFQGRVTITADETTSTAYMELSSLRSEDTAIYYCARDLAPAGFYGMDVWGQGTTVTVSSGGGGSGGGGSGGGGSGGGGASDIVLTQSPSSVSASVGDRVTITCRASQGISNWLAWYQQKPGKAPKLLIYAASSLQSGVPSRFSGSRSGTDFTLTISSLQPEDFATYYCQQARNFPFTFGQGTRLEIK
notes: as for B1
B8: scFv single chain antibody 11455 (scFv)
scFv: EVHLVESGGGVVQPGRSLRLSCAASGFTFSNYAMHWVRQAPGKGLEWVAVISYDGNNQYYADSVKGRFTISRDNSKNTLYLQMNSLRAEDTAVFYCARSIGFLESDAFDIWGQGTTVTVSSGGGGSGGGGSGGGGSGGGGASEIVLMQSPGTLSLSPGERATLSCRASQSFSDGSLAWYQQKPGQPPRLVIYDASKRATGIPDRFSGSRSGTEFTLTISSLQSEDFAVYSCQQYYNWPPTFGQGTRLEIK
notes: as for B1
B9: scFv single chain antibody 11458 (scFv)
scFv: RVRLQESGPGLVKPSETLSLTCTVSGGSISSSSYYWGWIRQPPGKGLEWIGSIYYSGSTYYNPSLKSRVTISVDTSKNQFSLKLSSVTAADTAVYYCAREYSGYDGAYVGYWGQGTLVTVSSGGGGSGGGGSGGGGSGGGGASQSVLTQPPSVSGAPGQRVTISCTGSNSNIRAGYDVHWYQQLPGTVPKLLIYGNSNRPSGVPDRFSGSKSGTSASLAISGLQSEDEGNYFCATWDDSLWGWVFGAGTELTVL
notes: as for B1
B10: scFv single chain antibody 11446 (scFv)
scFv: EVQLVESGGGVVQPGRSLRLSCAASGFTFSNYAMHWVRQAPGKGLEWVAVISYDGSDKYYADSVKGRFTISRDNSKNTLYLQMKSLRAEDTAVYYCARSIGFLESDAFDIWGQGTTVTVSSGGGGSGGGGSGGGGSGGGGASDIVLTQSPSSLSASVGDRVTITCQASHGISNFLNWYQQKPGKAPKLLIYDASTLETGVPSRFSGSGSGTDFRFTISSLQPEDIATYYCQQFDNLPITFGQGTRLEIK
notes: as for B1
B11: scFv single chain antibody 11451 (scFv)
scFv: QVQLQESGPGLVKPSETLSLTCTVSGGSISSGGYYWGWIRQPPGKGLEWIGSIYYSGRTYYNPSLKSRVTISVDTSRNQFSLKLSSLTAADTAVYYCARTGGGAYGFDYWGQGTLVTVSSGGGGSGGGGSGGGGSGGGGASQPVLTQPHSVSESPGKTVTISCTRSSGNIASNYVQWYQKRPGSPPTTVIYEDNQRPSGVPDRFSASIDSSSNSASLTISGLRTEDEADYYCQSYDTILGYVFGGGTQLTAL
notes: as for B1
B12: IgG4 monoclonal antibody 11487 (antibody, V domains shown)
VH: QVQLVESGGGLVQPGRSLRLSCVASGFTFDDHAMHWVRQTPEKGLEWVSGISWNGGDIRYADSVKGRFIISRDNAKNSLHLQMNSLRGEDTAVYYCARDGGYSVLRAFDIWGQGTTVTVSS
VL: QSVLTQPPSVSGAPGQRVTISCTGSSSNIGAGYDVHWYQQLPGTAPKLLIYGNSNRPSGVPDRFSGSKSGTSASLAITGLQAEDEADYYCQSYDSSLSGWVFGGGTQLIILG
notes: IgG4, lambda
B13: IgG4 monoclonal antibody 11454 (antibody, V domains shown)
VH: EVQLLQSGGGLVQPGGSLRLSCAASGFTFSSYEMNWVRQAPGKGLEWVSYISSSGSTIYYADSVKGRFTISRDNAKNSLYLQMNSLRAEDTAVYYCARVGLLDAFDIWGQGTMVTVSS
VL: QSVLTQPPSVSAAPGQKVTISCSGSSSNIGNNYVSWYQLIPEKAPRLLIYDDDKRPSGIPDRFSGSQSGTSATLGITGLQTGDEADYFCGTWDNSLSGAVFGGGTQLIILG
notes: IgG4, lambda
B14: IgG4 monoclonal antibody 11446 (antibody, V domains shown)
VH: EVQLVESGGGVVQPGRSLRLSCAASGFTFSNYAMHWVRQAPGKGLEWVAVISYDGSDKYYADSVKGRFTISRDNSKNTLYLQMKSLRAEDTAVYYCARSIGFLESDAFDIWGQGTTVTVSS
VL: DIVLTQSPSSLSASVGDRVTITCQASHGISNFLNWYQQKPGKAPKLLIYDASTLETGVPSRFSGSGSGTDFRFTISSLQPEDIATYYCQQFDNLPITFGQGTRLEIK
notes: IgG4, kappa
B15: IgG4 monoclonal antibody 11455 (antibody, V domains shown)
VH: B14 VH with Q3H, S56N, D57N, K58Q, K84N, Y94F
VL: EIVLMQSPGTLSLSPGERATLSCRASQSFSDGSLAWYQQKPGQPPRLVIYDASKRATGIPDRFSGSRSGTEFTLTISSLQSEDFAVYSCQQYYNWPPTFGQGTRLEIK
notes: IgG4, kappa
B16: IgG4 monoclonal antibody 11471 (antibody, V domains shown)
VH: RVRLQESGPGLVKPSQTLSLTCTVSGGSISSSNWWSWVRQPPGKGLEWIGEIYHSGSTNYNPSLKSRVTISVDKSKNQFSLKLSSVTAADTAVYYCARDRAIRDAFDIWGQGTTVTVSS
VL: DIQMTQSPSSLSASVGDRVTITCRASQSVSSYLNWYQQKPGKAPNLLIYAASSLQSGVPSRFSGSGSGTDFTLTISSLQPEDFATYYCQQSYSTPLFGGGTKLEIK
notes: IgG4, kappa

Substitutions are numbered along the chain they refer to.

The target in the first assay is T1, human LAG-3 on the cell surface. Nature of the assay: flow cytometry, soluble scFv supernatant on activated human CD4+ T cells, anti-His-PE. On the technique in general: In flow cytometry, cells or beads pass a laser one at a time.
Turning to B1, the binding result was “binds”. Still for that read-out and setting: under B2 stands “binds”. As to B3, the binding result is recorded as “binds”. In the case of B4, the binding result was “binds”. As to B5, the binding result was “binds”. The same measure, in the same setting: under B6 stands “binds”; under B7, “binds”. As to B8, the binding result was “binds”. For B9, the binding result is on record as “binds”. Same read-out and setting: for B10 the value was “binds”. In the case of B11, the binding result is recorded as “binds”.

The target of another assay is T2, human LAG-3-6*His tag recombinant …. Nature of the assay: ELISA, human LAG-3-6*His coated at 1 µg/ml, IgG4 titrated, anti-hIgG HRP. Background: ELISA stands for enzyme-linked immunosorbent assay.
As for B12, the EC50 stood at 3.35 µg/mL. On to B13, for which the concentration giving a half-maximal response (EC50) stood at 85.8 µg/mL.

As to B14, the concentration giving a half-maximal response (EC50) turned out to be 85.6 µg/mL.

For B15, the EC50 is 83.1 µg/mL. Same read-out and setting: for B16 the value was 22.3 µg/mL.

In general, EC50 refers to the concentration that produces a half-maximal response.

For the origin of these results see patent US20210147536A1 (MAB VENTURE BIOPHARM, published 2021).
